Measurements published in article PMC4258549 (Journal of immunology (Baltimore, Md. : 1950), 2014).

How the values were obtained:
[1] = biological target: T1, biotinylated C4b (human, biotin through Maleimide-PEG2-Biotin (residue not stated)); assay: SPR
[2] = biological target: T1, biotinylated C4b; assay: AlphaScreen or HTRF

B1: Eap34 (Eap fragment of domains 3 and 4) (domain or fragment)
chain: NYQVPYSINLNGTSTNILSNLSFSNKPWTNYKNLTSQIKSVLKHDRGISEQDLKYAKKAYYTVYFKNGGKRILQLNSKNYTANLVHAKDVKRIEITVKTGTKAKADRYVPYTIAVNGTSTPILSKLKISNKQLISYKYLNDKVKSVLKSERGISDLDLKFAKQAKYTVYFKNGKKQVVNLKSDIFTPNLFSAKDIKKIDIDVKQYTKSKKK
IC50 [1]: ~870 nM | Kd [2]: 525 ± 65 nM

B2: Eap23 (Eap fragment of domains 2 and 3) (domain or fragment)
chain: ANVQVPYTITVNGTSQNILSNLTFNKNQNISYKDLEGKVKSVLESNRGITDVDLRLSKQAKYTVNFKNGTKKVIDLKSGIYTANLINSSDIKSININVDTKKHIENKAKRNYQVPYSINLNGTSTNILSNLSFSNKPWTNYKNLTSQIKSVLKHDRGISEQDLKYAKKAYYTVYFKNGGKRILQLNSKNYTANLVHAKDVKRIEITVKTGTKAKADRYV
Kd [2]: 293 ± 38 nM

B3: Eap12 (Eap fragment of domains 1 and 2) (domain or fragment)
chain: GHSNIQIPYTITVNGTSQNILSSLTFNKNQNISYKDIENKVKSVLYFNRGISDIDLRLSKQAEYTVHFKNGTKRVIDLKSGIYTADLINTSDIKAISVNVDTKKQPKDKAKANVQVPYTITVNGTSQNILSNLTFNKNQNISYKDLEGKVKSVLESNRGITDVDLRLSKQAKYTVNFKNGTKKVIDLKSGIYTANLINSSDIKSININVDTKKHIENKAKR
fold weaker binding than Eap [2]: ~100 fold
